Secondary rate constant (+hep), thrombin inhibition in the presence of heparin and Secondary rate constant (-hep), thrombin inhibition in the absence of heparin data for five substances are collected here from US20060024793A1.

The target in this experiment is thrombin (manufactured by Enzyme Research Laboratories). In words: cell-based or functional assay.

For the substance “ATIII DG44 peak (1) fraction (recombinant human antithrombin III produced by pKAN-ATIII AFDG44, CHO/DG44 cell) (from UniProt P01008 33-464)”, the Secondary rate constant (+hep), thrombin inhibition in the presence of heparin worked out at 8.7e+06 M⁻¹ s⁻¹ and the Secondary rate constant (-hep), thrombin inhibition in the absence of heparin came to 7700 M⁻¹ s⁻¹. For “ATIII DG44 peak (2) fraction (recombinant human antithrombin III produced by pKAN-ATIII AFDG44, CHO/DG44 cell) (from UniProt P01008 33-464)”, the Secondary rate constant (+hep), thrombin inhibition in the presence of heparin worked out at 2e+07 M⁻¹ s⁻¹ and the Secondary rate constant (-hep), thrombin inhibition in the absence of heparin is 8600 M⁻¹ s⁻¹. In the case of “ATIII MS705 peak (2) fraction (recombinant human antithrombin III produced by pKAN-ATIII AFMS705, FUT8 gene-double-knockout CHO/DG44 cell) (from UniProt P01008 33-464)”, the Secondary rate constant (+hep), thrombin inhibition in the presence of heparin is 2.5e+07 M⁻¹ s⁻¹. Turning to “ATIII MS705 peak (3) fraction (recombinant human antithrombin III produced by pKAN-ATIII AFMS705, FUT8 gene-double-knockout CHO/DG44 cell) (from UniProt P01008 33-464)”, the Secondary rate constant (+hep), thrombin inhibition in the presence of heparin is 2.6e+07 M⁻¹ s⁻¹ and the Secondary rate constant (-hep), thrombin inhibition in the absence of heparin was 8800 M⁻¹ s⁻¹. On the same counts, the results for “Neuart (human plasma-derived antithrombin III preparation, manufactured by Mitsubishi Pharma Corporation) (from UniProt P01008 33-464)” are 2.3e+07 M⁻¹ s⁻¹ and 8200 M⁻¹ s⁻¹.
